Test results as given in publication PMC8558179, “The C-terminal peptide of CCL21 drastically augments CCL21 activity through the dendritic cell lymph node homing receptor CCR7 by interaction with the receptor N-terminus” (Cellular and Molecular Life Sciences: CMLS, 2021).
Residue numbers refer to the chain shown, from its start.

How the values were obtained:
human CCR7 [1] = biological target: T1, human CCR7 (Homo sapiens, UniProt P32248); test: Gαi signaling, BRET-based cAMP (CAMYEL) assay at CCR7 in CHO cells; assay type: cell-based; settings: for boosting of CCL21-induced Gαi signaling: CCL21 + 10 µM peptide, BRET cAMP, n = 3–8
T1 construct: CCR7 contains a 24-residue long signal peptide cleaved of from the mature protein; expressed in transfected cells; host or cells: CHO cells (CHO-K1, CHO suspension WT, GAG-deficient and 5xKO GalNAc-T knockout lines), transient transfection
T1 sequence (P32248 25-378): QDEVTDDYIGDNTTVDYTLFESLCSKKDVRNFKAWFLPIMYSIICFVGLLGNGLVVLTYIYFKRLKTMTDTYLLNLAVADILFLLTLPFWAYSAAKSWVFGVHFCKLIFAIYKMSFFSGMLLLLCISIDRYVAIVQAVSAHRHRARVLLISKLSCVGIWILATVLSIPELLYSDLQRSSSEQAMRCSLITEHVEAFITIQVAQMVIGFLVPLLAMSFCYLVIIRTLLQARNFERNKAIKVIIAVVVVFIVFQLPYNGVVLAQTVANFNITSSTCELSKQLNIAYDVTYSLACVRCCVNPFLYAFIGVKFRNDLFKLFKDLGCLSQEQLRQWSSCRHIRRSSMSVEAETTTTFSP
Protocol: (§1) Human DCs were cultured in X-vivo 15 medium with 2% human AB serum and glutamine. CHO-K1 pgsB-618 ATCC® CRL2241™ [24] and CHO-K1 cells were grown in RPMI with 10% FBS and Penicillin/Streptomycin. HS^−/− (CHO EXTL 2/3 −/−), CS^−/− (CSGALNACT 1/2^−/− CHSY1^−/−), 5xKO (GalNAc-T1, 2, 4, 7 and 10 −/−) and WT CHO suspension cells were grown in suspension in 1:1 of EX-Cell CD CHO fusion media and Balanced CD CHO growth A medium supplemented with 2% glutamine and Penicillin/Streptomycin. Cells were kept in a humidified incubator at 37 °C, 5% CO2.
(§2) For cAMP assays, adherent CHO cells were transfected using lipofectamine while suspension cells were transfected using the FectoPro method. Cells were seeded in a 6-well plate, either 500,000 (adherent cells) or 200,000 (suspension cells) cells/well. The next day the cells were transiently transfected with vectors encoding the human CCR7 and CAMYEL sensor (cAMP sensor using YFP-Epac-RLuc) in a 1:5 ratio using lipofectamine (6 µl/well) or FectoPro (4 µl/well). Lipofectamine transfections were terminated by changing to 2 ml fresh cultivation medium after 5 h, while Fectopro transfection was terminated after 3 h by adding 2.5 ml fresh cultivation medium and 2 µl FectoPro Boost reagent per well. The cells were incubated under standard cultivation conditions overnight. For β-arrestin recruitment assays, cells were transfected with CCR7 and vectors expressing a Renilla luciferase arrestin3 fusion protein and membrane-SH3-citrine protein. The cells were then resuspended in PBS w/glucose and seeded in 96-well white iso plates (~ 25,000 cells/well). Coelenterazine (bioluminescence substrate) was added to a final conc. of 5 µM. After 10 min, cells were stimulated with varying ligand concentrations for a total of 40 min. Forskolin was added to each well 5 min after ligand addition to reach a final conc. of 5 µM. The plates were kept in the dark at all times. Emission signal from Rluc and eYFP was measured using the Envision machine at 530 and 480 nm and the BRET signal determined as the ratio between (eYFP/Rluc).

[2] = test system: human moDCs naturally expressing CCR7; test: 3D chemotaxis, time-lapse recording of human moDCs in Collagen I (chemotactic index); assay type: cell-based; settings: human moDCs; for boosting of CCL21-induced DC chemotaxis: 10 nM CCL21, peptide 10 µM (0.1–10 µM in the dose series)
Protocol: Buffy coats were obtained from Rigshospitalet Copenhagen, as anonymous material, with written informed consent from the donors. The local ethics committee at Faculty of Health and Medical Sciences at the University of Copenhagen (Research Ethics Committee for Sund and Science, University of Copenhagen) found the project exempt from approval. DCs were prepared from human peripheral blood mononuclear cells (PBMC) isolated from buffy coats by centrifugation on a Lymphoprep gradient as previously described. Briefly, monocytes were isolated by plastic adherence of PBMC. Adhered monocytes were subsequently cultured and differentiated into immature DCs by incubation with IL-4 (250 U/ml) and GM-CSF (1000 U/ml) for 6 days, followed by activation into mature DCs by incubation with IL-6 (1000 U/ml), IL-1β (1000 U/ml), TNF-α (1000 U/ml), and PGE2 (1 µg/ml) for an additional 2 days in the same medium.
as §1
Chemotaxis assays were conducted as previously described. Briefly, mature human moDCs were left to acclimatize in medium for 30 min at room temperature (RT) upon defrosting, before assay start. DCs were seeded in Bovine Collagen I mixture prepared by mixing 10 µl Na2HCO3 (7.5%), 20 µl MEM (10×), 150 µl PureCol and 90 µl DCs dissolved in X-vivo 15 medium (2 × 10^6 cells/ml). After incubation for 45 min in a humidified incubator at 37 °C (5% CO2), the source and sink reservoirs were filled according to the manufacturer’s instructions and chemotaxis was tracked in a time-lapse microscope with a humidified temperature controlled stage incubator for 12 h at a 2 min interval. Cell migration (approximately 20–40 cells per viewing field) was tracked using a commercial tracking program (Autozell) and subsequently analyzed to get a population-based chemotactic index (CI) value (MATLAB). CI is a measure of net translocation distance to the source relative to total distance traveled and was thus calculated as the ratio of the distance traveled in the direction of the gradient over the total distance traveled and therefore is a conservative measure of the directedness of cell migration.

[3] = biological target: T2, CCR7^−O (CCR7 T37/38/42A) (Homo sapiens, UniProt P32248, T37A/T38A/T42A); test: Gαi signaling, BRET cAMP assay, CCR7 lacking N-terminal O-glycosylation sites; assay type: cell-based; settings: no peptide, CCR7^−O vs WT CCR7
T2 construct: CCR7 contains a 24-residue long signal peptide cleaved of from the mature protein; expressed in transfected cells; host or cells: CHO cells, transient transfection
T2 sequence (P32248 25-378 T37A/T38A/T42A): T1 sequence (P32248 25-378) with T13A, T14A, T18A
Protocol: O-glycosylation deficient CCR7 was generated from WT through Quick change PCR using the following primers: […]
as §2

human CCR7 [4] = biological target: T1, human CCR7; test: β-arrestin recruitment, BRET-based assay at CCR7; assay type: cell-based; settings: no peptide, n = 4
Protocol: as §2

CCR7 = settings: allosteric antagonist, cytosolic site; cited from earlier work
Description: In the absence of peptide, CCL19 and CCL21 contact CCR7 in different manners. The interaction of CCL21 depends on residues in the top of TM-3, -4 and -5 that are not important for CCL19 interaction with CCR7. The binding of these two chemokines induce different structural changes in CCR7 to disrupt old and create new hydrogen bonds. CCL21 binding to CCR7 is believed to involve movements within the majority of helical domains (TM2, -3, -4, -5, -6, and -7), whereas the changes induced by CCL19 are restricted to regions of TM3, -5, and -6 [37]. The conformational changes in CCR7 ind ...

Row | boosting of CCL21-induced Gαi signaling (human CCR7 [1]; CHO cells) | Compound | boosting of CCL21-induced DC chemotaxis [2] | further results
1 | boosted even more | TP81-111: naturally occurring peptide generated upon plasmin cleavage of CCL21 (RKDRGASKTGKKGKGSKGCKRTERSQTPKGP; UniProt O00585 104-134, looked up, fragment) | at least to the same extent as TP71-111 | 
2 | retaining boosting ability | TP91-111: C21TP reduced N-terminally by 20 aa (KKGKGSKGCKRTERSQTPKGP; UniProt O00585 114-134, looked up, fragment) | retaining boosting ability | 
3 |  | CCL19: endogenous chemokine, CCR7 ligand, from R&D Systems |  | chemokine signaling in O-glycosylation-deficient 5xKO cells (human CCR7 [1]; CHO 5xKO vs WT, CCL21 alone, CCL19 in absence or presence of C21TP): only slightly impaired; pEC50, Gαi signaling, chemokine alone (human CCR7 [1]; no peptide, CHO cells, forskolin 5 µM, n = 4): 7.94; chemokine activity on its own at CCR7^−O [3]: without affecting basal CCR7 activation via CCL19 and CCL21; pEC50, β-arrestin recruitment, chemokine alone (human CCR7 [4]): 7.11; chemotaxis towards chemokine alone ([2]; 10 nM chemokine, no peptide): strong migratory signal
4 | conserved boosting effects | TP81-102: C-terminally truncated version of TP81-111 (RKDRGASKTGKKGKGSKGCKRT; UniProt O00585 104-125, looked up, fragment) | conserved boosting effects | 
5 | reduced signaling via cAMP | TP81-97: C-terminally truncated version of TP81-111 (RKDRGASKTGKKGKGSK; UniProt O00585 104-120, looked up, fragment) | blunted chemotaxis boosting ability | 
6 |  | Cc1ccc(C(NC2=NS(=O)(=O)N=C2Nc2ccc(C)c(C(=O)N(C)C)c2O)C(C)(C)C)o1 (centres unmarked) [Cmp2105] |  | competition with CCL19 binding to CCR7 (CCR7): outcompetes CCL19 binding to CCR7
